# In doi:10.1101/718155:
# Experiments:
# S100A4 [1] = assay: ITC
# S100A2 = assay: FP
# S100A4 [2] = assay: FP
# S100A14 = assay: FP
# S100A15 = assay: FP
# S100A1 = assay: FP
# S100A3 = assay: FP
# S100A5 = assay: FP
# S100A6 = assay: FP
# S100A7 = assay: FP
# S100G = assay: FP
# S100P = assay: FP
# [3] = biological target: C-ERMAD (516-560 and 516-586) peptide (UniProt P15311); assay: FP
# S100A11 = assay: FP
# Sequence of p53 (1-60; 17-53) peptide (P04637 1-60): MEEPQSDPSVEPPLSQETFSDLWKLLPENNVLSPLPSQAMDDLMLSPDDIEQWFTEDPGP
# Sequence of C-ERMAD (516-560 and 516-586) peptide (from UniProt P15311 516-586) (P15311 516-586): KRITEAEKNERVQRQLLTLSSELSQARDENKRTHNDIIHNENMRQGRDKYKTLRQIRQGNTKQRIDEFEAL
# Sequence of C-ERMAD (516-560 and 516-586) peptide (UniProt P15311) (P15311 516-586): as above
Kd (S100A2),Kd (S100A4 [2]),Kd (S100A6),Kd (S100P),Substance,further results
5.4 µM,6.1 µM,,,C-ERMAD (516-560 and 516-586) peptide (from UniProt P15311 516-586),Kd (S100A4 [1]): 35 µM
0.27 µM,2 µM,0.007 µM,1.2 µM,FOR20,Kd (S100A14): 63 µM; Kd (S100A15): 17 µM; Kd (S100A1): 0.5 µM; Kd (S100A3): 29 µM; Kd (S100A5): 1.9 µM; Kd (S100A7): 5.9 µM; Kd (S100G): 3.8 µM
4.5 µM,,,2.7 µM,MK2,Kd (S100A1): 15 µM
18 µM,24 µM,6.7 µM,2.5 µM,MNK1,
,,,,S100A2,Kd [3]: 15 µM
,,,,S100A4,Kd [3]: 11 µM
5.2 µM,2.1 µM,2.2 µM,,p53 (1-60; 17-53) peptide (from UniProt P04637 1-60),Kd (S100A11): 12 µM; Kd (S100A3): 7.7 µM; Kd (S100A5): 67 µM
